Values quoted from earlier work in article PMC2659627 (Bioconjugate chemistry, 2008).
DPr = 2,3-diaminopropanoyl

Assays:
GRP-receptors = settings: read-out: IC50 (binding affinity to GRP-receptors); human PC-3 cell line
PC-3 cells = settings: after 90 min incubation with PC-3 cells

| Substance | IC50 (GRP-receptors) | Uptake in normal pancreas | Internalization (PC-3 cells) | Uptake compared to DTPA-BBN[1-14] (PC-3 prostate tumors) | Uptake compared to DTPA-BBN[1-14] (CA20948 pancreas tumor) |
| --- | --- | --- | --- | --- | --- |
| (DPr)-Ser-Ser-Ser-Gln-Trp-AlaVal-Gly-His-Leu-Met-(NH2) (DPr-SSSQWAVGHLM-NH2; also: Tc/Re tricarbonyl complex on DPr chelator) | ~860 pM | 16 ± 1.3 ID/g | 80% | – | – |
| DTPA-ACMpip-Tha^6-BAla^11-Tha^13-Nle^14-BBN[6-14] | – | – | – | 1.3 times | two to three times higher |
